In the supplement of paper PMC10567573:

B1: SLC25A39 (parent)
chain: LTSDLYAPMVAGALARLGTVTVIS
B2: RIPK4 (parent)
chain: VSVNAQTLDGRTPLHLAAQRGHYR

Variants of: B1
Assay: protein stability index of a GFP-peptide fusion (GPS, HEK-293T) (PSI 1-6); higher = more stable
Conditions: c terminus: a fixed tail appended
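Note: lentivirally expressed fusions sorted by FACS into six bins by GFP to DsRed ratio, PSI derived from sequencing read proportions per bin multiplied by bin number.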

Protein stability index, by site and new letter:
S24: G 3, D 3.34, Q 1.45, H 3.6, P 2.21, E 2.61, N 1.91, W 3.06, C 3.08, R 2.26, K 1.61, I 1.56, T 4.15
L14: C 3.43, Y 3.67, H 1.12, R 1.72, G 2.76, T 1.58, P 2.24, S 1.69, E 1.91, N 1.69, W 5.23, F 3.32, A 1.79, Q 1.53, V 2.83, D 1.83, K 1
V10: K 2.15, S 2.6, H 2.45, F 2.85, C 3.02, R 1.49, E 1.21, Y 2.63, D 1.9, P 1.85, A 3.92, M 4.25, T 3.25, Q 1.96, N 1.96, G 2.72, W 2.29
R16: L 2.76, A 2.1, Q 3.11, D 2.58, M 3.22, N 1.5, Y 2.35, W 2.85, I 2.97, E 1.76, F 4.13, S 2.41, P 1.98
L17: K 1.75, D 2.47, R 1.1, W 4.43, I 3.23, E 2.71, N 1.96, T 1.52, A 1.92, S 2.51, Y 2.12, G 3.15, V 2.22, H 2.7, C 1.56, F 2.95, P 1.69
I23: D 2.3, K 2.04, G 2.18, P 1.8, S 1.95, L 2.75, E 2.54, N 1.98, Y 2.31, R 1.87, Q 2.56
G18: P 2.57, A 2.61, K 2.53, W 3.57, D 2.53, T 3.39, R 2.66, H 4.48
A7: S 2.38, H 2.38, C 2.42, Q 2.86, D 1.17, T 1.62, L 3.74, V 1.96, P 1.87, K 1.61, R 3.29, N 1.97, I 4.33
M9: D 1.78, E 2.54, G 1.6, A 2.21, T 2.35, H 1.77, I 2.76, S 1.75, P 1.5, K 1.52, R 1.36, L 3.65, Y 3.86, C 1.65, Q 2.57, N 1.01
G12: H 2.64, V 3.9, I 3.04, R 3.52, Y 2.21, Q 4.46, S 1.53, L 3.83, K 3.64, P 1.23
A15: G 2.69, S 3.49, R 2.1, Q 3.66, E 1.39, K 3.12, T 3.55, P 1.97, N 1.87, M 4.42, D 1.93, L 1.45, F 2.6
T21: M 2.7, H 2.26, N 2.79, Q 2.95, D 3.1, V 2.03, R 2.12, E 2.09, W 3.97, F 3.5
V20: R 1.76, Y 3.19, P 1.45, W 1.77, D 2.73, N 2.54, G 1.99, H 3.15, E 2.43, K 2.05, F 2.09, I 3.37, T 1.02, S 2.26
V22: N 1.11, R 2.82, A 2.58, K 1.74, C 3.43, S 2.31, F 2.47, Y 1.6, L 3.04, T 2.04, P 1.61, E 2.08, D 1.49
P8: E 3.86, N 1.7, S 3.97, T 3.06, M 3.46, W 2.68, L 2.02, D 3.54, I 1.62, A 1.5, C 2.52
A11: N 2.3, H 2.69, F 3.02, Y 4.45, M 2.95, K 2.39, T 2.81, D 1.65, L 2.5, P 3.19, Q 1.65
A13: S 1.38, R 1.79, H 2.47, Q 2.61, D 1.74, T 1.75, P 1.16, N 2.09, C 2.73, V 2.79, M 3.17, K 3.56
T19: G 1.91, Q 1.8, D 1.76, K 2.21, H 1.94, V 2.87
Y6: W 3.76, V 2.13

Variants of: B2
Assay: as above
Conditions: c terminus: a fixed tail appended

Protein stability index: each site, then its substitutions
V3: F 2.96, G 3.9, W 2.69, N 4.49, D 4.13, L 3.35, H 4.67, Y 2.75, T 3.53, P 3.83, E 4.86, R 4.33, S 3.97, K 3.6, C 3.12, Q 4.22, M 3.73, A 3.85, I 2.67
N4: Q 3.41, E 3.17, V 2.53, T 3.04, M 2.66, W 2.06, K 3.51, Y 3.12, A 3.17, F 2.06, G 3.3, I 2.44, L 2.69, D 3.86, P 3.42, H 3.46, S 2.86, C 3.18, R 3.21
Q6: M 2.87, N 3.03, H 3.52, C 2.62, F 2.22, K 3.21, A 3.43, E 2.95, D 3.93, G 3.13, L 3.69, I 2.69
V1: T 3.78, D 4.66, P 3.85, Y 3.59, W 3.5, Q 3.99, I 3.54, S 3.62, M 4.21, L 3.98, R 4.06, H 3.79, K 3.74, C 2.54, E 3.97, G 3.76, F 3.39, A 3.94, N 4.12
S2: W 2.3, K 3.41, Y 2.82, F 2.57, A 3.24, R 3.33, Q 3.22, E 3.27, H 2.42, T 2.91, I 2.18, D 4.08, N 3.73, G 3.97, V 2.22, P 3.75, L 2.86, C 2.93, M 2.89
A5: M 2.77, C 3.88, P 3.12, N 3.53, E 3.73, T 3.52, Y 3.1, Q 3.13, K 3.69, F 2.61, G 3.02, S 3.37, V 2.64, R 2.94, D 4.28, W 2.83, H 3.36, I 2.19, L 2.76
